Results on one molecule are retold here after patent US20100322948A1, “Bone morphogenetic protein (BMP)-binding domains of proteins of the repulsive guidance molecule (RGM) protein family and functional fragments thereof, and use of same” (ABBOTT GMBH & CO. KG, priority 2007, published 2010).

“Also recorded” adds a separate entry of the source.

Test [1] relates to BMP signalling (rhBMP-2-induced luciferase activity). The experiment in a line: BRE-Luc assay on BMP signalling in BMP-responsive C3H10-B12 cells. Format: cell-based. The method, then: Evaluation of the Agonistic or Antagonistic Effect of h RMG A on BMP Signalling using BRE-Luc Assay
a) Materials: • Three compounds were provided at 200 μg/ml.
fragment #788 (IgK/hRGM A 47-422/Xa cleavage site/Fc) • recombinant h BMP-2 (from CHO cells; #355-BM) and monoclonal anti-human BMP2/4 antibodies (#MAB3552) were obtained from R&D Systems Europe, Lille, France • Bright-Glo Luciferase assay kit were purchased from Promega
All experiments were performed in triplicate, and were repeated at two separate times.

For another test, the system named is SH-SY5Y cells. The experiment in a line: Neurite growth assay using SH-SY5Y cells (test method 1). Format: cell-based, human. The conditions noted are these: FIG. 7A. An excerpt:
Test Method 1: Illustration of the Effect of RGM Peptides in the Neurite Growth Assay, Using SH-SY5Y Cells
SH-SY5Y cells are human neuroblastoma cells. Blastomas are embryonic tumors which originate during tissue and organ formation. The origin of the blastoma cells is frequently unknown, since in early embryonic states the differentiation of many cells is still premature; i.e., the blastoma cells are a heterogeneous cell population. The cells of a neuroblastoma, referred to as neuroblasts, originate from the neural crest (structure of the embryonic state) from the autonomous nerve tissue, and are practically arrested in an immature stage. The cells in the present case originated from a clonal subculture of the neuroepitheliomal cell line SK-N-SH which were isolated in 1970 in a bone marrow biopsy of a child with metastases of the neuroblastomas.
Culture Medium for SH-SY5Y Cells (ECACC No. 94030304)
The medium was sterile-filtered using a Nunc 500-mL filter, and was stored in a refrigerator at 4° C. until used. Before use, the medium was heated to 37° C. in a water bath.
SH-SY5Y cells are epithelial, neuron-like cells which slowly adherently grow in a monolayer and never attain a confluence of 100% (maximum 80%). The cell culture was split 1:3 two times per week. Isolation of the cells requires incubation with trypsin for 1-3 minutes in an incubator.
Since this is a population of still immature precursor cells, it is possible to differentiate the cells using retinoic acid, so that a certain percentage of the cells acquire neurite-like extensions. For this purpose the culture was incubated in the medium with 10 μM retinoic acid directly in the culture dish or flask, depending on the test, for 3 days.
Microtiter plates (96-well) (containing collagen I-coated plates) were additionally coated with the hRGM A fragments. After washing two times with PBS the cells were seeded. […] In the quantitative analysis the SH-SY5Y cells grown on hRGM A fragments were compared to SH-SY5Y grown on collagen I alone. The neurite length of the cells was automatically measured and used for the analysis. […]

For a further test, the target named is T1, BMP-4 (Homo sapiens, UniProt P12644).
T1 construct: purchased R&D Systems 314-BM
T1 sequence (P12644 293-408): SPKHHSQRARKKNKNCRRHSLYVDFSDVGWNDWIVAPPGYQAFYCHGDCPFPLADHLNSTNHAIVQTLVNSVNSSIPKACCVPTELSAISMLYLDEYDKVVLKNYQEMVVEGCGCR
Kind of test: In vitro interaction test, variant A: immobilized BMP-4, detection of binding of RGMA-Fc fusion proteins. Particulars: Working Example 3, FIG. 5. On the procedure:
Test Method 4: In Vitro Interaction Test for Determining the Interaction between RGMA and BMP-2 and -4
The interaction tests were carried out as described below:
Variant A: Immobilization of the BMP-2/ or -4 Protein and Detection of the Binding of Various RGMA-Fc Fusion Proteins
1. Plate: • Immunoplate Cert. MaxiSorp F96 (Nunc, 439454)
Recombinant human BMP-2, Catalog No.: 355-BM, Company: R&D Systems; Recombinant human RGM A, R&D Systems; Prod. #2495-RM, or
Recombinant human BMP-4, Catalog No.: 314-BM, Company: R&D Systems; • Concentration: 10 μg/mL • Volume used: 2.5 μg/mL in Na2CO3; addition: 50 μL per well • 1 hour at 37° C. in damp chamber
3. Washing step: • Wash 3× with PBS/[…] Tween 20
4. Blocking: • 3% BSA in PBS/0.02% Tween, 1 hour at 37° C. in damp chamber; addition: 200 μL per well
RGMA-Fc fragments, • 1 μg/mL initial concentration, then dilution down to 1:2 using PBS/0.02% Tween20 • […] • 1 hour at 37° C. in damp chamber
6. Washing step: • Wash 3× with PBS/0.02% Tween 20
Biotin anti-human Fc (R&D-Systems), Catalog No.: 709065; 1 mg/mL; • 1:200 in 0.6% BAS/PBS-T (0.02% Tween) • Addition: 50 μL per well • 1 hour at 37° C. in damp chamber
8. Secondary antibody: Strep. POD (Roche); Catalog No.: 11089153001 • 500 U; 1:5000 in 0.6% BAS/PBS-T (0.02% Tween) • Addition: 50 μL per well • 1 hour at 37° C. in damp chamber
9. Washing step: • Wash 3× with PBS/0.02% Tween 20
ImmunoPure TMB substrate kit; Pierce, #34021 • Development period: approximately 1-30 minutes • 1:1 mixture of […]; addition: 50 μL per well
11. Stop: • 2.5 M H2SO4; addition: 50 μL per well
The test was conducted according to test method 4, variant A above, with immobilization of BMP-4 (1 mg/mL). The binding of the fusion proteins was detected using anti-human-Fc or anti-Myc anti-rabbit (Invitrogen) antibodies.
The test was conducted according to test method 4, variant A above, with immobilization of BMP-4 (1 mg/mL). The binding of the fusion proteins was detected using anti-human-antibodies.

B1: fragment #786: Fc fusion protein of human RGM A amino acids 47-168 (protein)
chain: PCKILKCNSEFWSATSGSHAPASDDTPEFCAALRSYALCTRRTARTCRGDLAYHSAVHGIEDLMSQHNCSKDGPTSQPRLRTLPPAGDSQERSDSPEICHYEKSFHKHSATPNYTHCGLFGD
modifications: left off: small tags and cut ends; a dimerising Fc or GST
Turning to B1, in test [1] (combined with rhBMP-2 at 50 ng/ml, 24 h, listed as #786), the “effect on BMP-2-induced luciferase activity” value is on record as “dose-dependent inhibition; also recorded: inhibited the rhBMP-2-induced activity in a dose dependent fashion”. Also, the “inhibition of the rhBMP-2-induced activity” value in test [1] (compounds at 10 μg/ml, rhBMP-2 at 50 ng/ml) is listed as 88%. Besides, in test [1] (rhBMP-2 at 50 ng/ml), the “equivalent dose for 50% of inhibition (ED50)” value was found to be 0.1 µg/mL. Besides, the “inhibition of neurite growth” value with SH-SY5Y cells is given as “inhibit the neurite growth”. For the same molecule, in the test on SH-SY5Y cells (listed as 47-168-Fc), the “inhibitory activity in neurite growth test compared with 316-386-Fc” value is reported as “much stronger effect; also recorded: significantly higher activity”. Further, in the test with BMP-4, the “binding to immobilized BMP-4, comparison among fragments” value is recorded as “most strongly”. Moreover, the “binding to immobilized BMP-4” value with BMP-4 (detection anti-human-Fc or anti-Myc) was “Significant concentration-dependent binding”.
